In patent US20250101134A1, “ANAPLASTIC LYMPHOMA KINASE ANTIBODIES AND METHODS OF USE THEREOF” (The Children's Hospital of Philadelphia, priority 2022, published 2025):

Experiments:
[1] = biological target: T1, ALK extracellular domain expressed on the cell surface of 293T cells (293T-ALK) (Homo sapiens, UniProt Q9UM73); test: cell-based or functional assay
[2] = biological target: cell surface ALK on neuroblastoma cells (IMR32, SY5Y-D3, SY5Y) (human) (UniProt Q9UM73); test: cell-based or functional assay
Sequence of cell surface ALK on neuroblastoma cells (IMR32, SY5Y-D3, SY5Y) (human) (Q9UM73 19-1620): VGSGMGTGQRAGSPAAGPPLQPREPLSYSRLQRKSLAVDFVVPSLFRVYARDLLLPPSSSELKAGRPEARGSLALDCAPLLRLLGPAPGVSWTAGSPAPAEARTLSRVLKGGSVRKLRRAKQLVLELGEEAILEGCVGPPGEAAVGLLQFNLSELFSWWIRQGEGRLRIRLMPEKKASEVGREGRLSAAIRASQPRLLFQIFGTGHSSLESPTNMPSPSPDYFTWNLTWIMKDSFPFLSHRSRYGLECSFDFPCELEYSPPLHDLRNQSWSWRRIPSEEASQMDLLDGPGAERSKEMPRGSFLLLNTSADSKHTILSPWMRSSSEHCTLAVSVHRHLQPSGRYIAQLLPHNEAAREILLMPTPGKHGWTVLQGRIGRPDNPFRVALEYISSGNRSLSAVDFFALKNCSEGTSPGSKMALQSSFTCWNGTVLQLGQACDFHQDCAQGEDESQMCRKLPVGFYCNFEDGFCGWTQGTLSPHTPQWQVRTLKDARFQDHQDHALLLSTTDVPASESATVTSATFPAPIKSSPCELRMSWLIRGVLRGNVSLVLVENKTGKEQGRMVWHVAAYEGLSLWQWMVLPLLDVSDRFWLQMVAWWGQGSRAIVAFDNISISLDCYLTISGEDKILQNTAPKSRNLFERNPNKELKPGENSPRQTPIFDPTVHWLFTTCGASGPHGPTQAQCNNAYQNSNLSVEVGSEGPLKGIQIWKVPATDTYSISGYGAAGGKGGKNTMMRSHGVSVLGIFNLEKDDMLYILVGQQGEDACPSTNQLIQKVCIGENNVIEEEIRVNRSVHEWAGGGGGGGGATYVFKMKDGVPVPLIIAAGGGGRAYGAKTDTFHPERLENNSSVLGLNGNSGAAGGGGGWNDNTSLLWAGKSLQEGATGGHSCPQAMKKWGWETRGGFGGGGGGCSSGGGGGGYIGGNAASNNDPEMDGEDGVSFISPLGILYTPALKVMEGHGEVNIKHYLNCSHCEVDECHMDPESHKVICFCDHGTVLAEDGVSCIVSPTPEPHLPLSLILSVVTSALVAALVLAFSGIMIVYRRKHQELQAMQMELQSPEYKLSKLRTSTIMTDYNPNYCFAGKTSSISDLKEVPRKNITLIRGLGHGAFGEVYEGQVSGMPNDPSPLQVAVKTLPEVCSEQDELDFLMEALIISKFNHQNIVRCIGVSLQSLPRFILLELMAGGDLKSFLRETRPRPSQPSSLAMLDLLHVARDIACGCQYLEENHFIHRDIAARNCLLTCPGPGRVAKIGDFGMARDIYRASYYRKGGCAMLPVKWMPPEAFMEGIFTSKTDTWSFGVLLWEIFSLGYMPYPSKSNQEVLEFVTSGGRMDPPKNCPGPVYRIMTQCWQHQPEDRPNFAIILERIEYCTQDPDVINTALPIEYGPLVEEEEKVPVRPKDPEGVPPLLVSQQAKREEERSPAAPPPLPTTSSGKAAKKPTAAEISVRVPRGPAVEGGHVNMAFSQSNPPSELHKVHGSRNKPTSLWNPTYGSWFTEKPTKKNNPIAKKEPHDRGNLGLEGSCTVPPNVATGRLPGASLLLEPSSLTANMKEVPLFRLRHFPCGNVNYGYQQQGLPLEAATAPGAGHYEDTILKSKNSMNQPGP

[3] = test system: 293T cells; test: Flow cytometry binding of VHs to 293T cells (non-specific binding); details: VH at 1 μM, anti-FLAG-PE detection
Description: (§1) FIG. 1A provides a schematic of ALK. MAM1, LDLa, MAM2, G-rich, G-T domains and full-length ALK extracellular domain (ALK-Ecto) were expressed separately for phage panning. Briefly, 293T and 293T-ALK cells were stained with different VH antibodies at a concentration of 1 μM in […] PBS for 30 minutes on ice. The cells were washed with 1 mL PBS three times and incubated with anti-FLAG-PE antibody (1:200, BioLegend) for 30 minutes on ice. The FLAG tag comprises the sequence: DYKDDDDK (SEQ ID NO: 9). The stained cells were then washed with 1 mL PBS three times. Antibody binding was detected on a BD™ LSR II (BD Biosciences, San Jose, CA). Fluorescence activated cell sorting (FACS) data analysis was performed using FlowJo_V10_CL.
(§2) FIGS. 1B and 1C show the flow cytometry results with various VHs binding to ALK extracellular domain expressed on the cell surface of 293T cells (293T-ALK). VH9 and VH20 were identified with the G-rich domain antigen while VH5 and VH78 were identified with the G-T domain antigen.

[4] = Aggregation by dynamic light scattering (DLS); assay type: physicochemical; details: 5 mg/mL in PBS, 37° C., day 0 to day 14
Description: The 4 VHs were studied by dynamic light scattering (DLS). Briefly, VH antibodies were buffer changed with PBS and filtered with a […] filter.
Antibody concentration was adjusted to 5 mg/mL. 500 μL samples were incubated at 37° C. for DLS. Samples were measured at day 0, day 1, day 4, day 7, and day 14 on Zetasizer Nano-ZS ZEN 3600 (Malvern Instruments Limited; Malvern, UK) to determine the size distributions of protein particles.

[5] = Size exclusion chromatography (SEC); assay type: physicochemical; details: Superdex 200 Increase 10/300 GL, DPBS
Description: VH20 was also studied by size exclusion chromatography (SEC). 200 μL (1 μg/mL) filtered samples were used for analysis. A Superdex® 200 Increase 10/300 GL column (GE Healthcare, Cat. No. 28990944) was used for the SEC. The column was calibrated with protein molecular mass standards of ferritin (440 kDa), aldolase (158 kDa), conalbumin (75 kDa), ovalbumin (44 kDa), carbonic anhydrase (29 kDa), and ribonuclease A (13.7 kDa). Protein was eluted by Dulbecco's phosphate-buffered saline (DPBS) buffer at a flow rate of 0.5 mL/minute.
Size exclusion chromatography (SEC) was also performed to characterize VH20-OKT3-Fc BiTE. Briefly, 200 μL (1 μg/mL) filtered samples were used for analysis. Superdex® 200 Increase 10/300 GL columns (GE Healthcare, Cat. No. 28990944) were used. The column was calibrated with protein molecular mass standards of ferritin (440 kDa), aldolase (158 kDa), conalbumin (75 kDa), ovalbumin (44 kDa), carbonic anhydrase (29 kDa), and ribonuclease A (13.7 kDa). Protein was eluted by DPBS buffer at a flow rate of 0.5 mL/minute.

[6] = test system: ALK; test: BLItz competition with KTN0239-IgG for ALK; assay type: binding; details: Protein A biosensor, KTN0239-IgG loaded, then ALK, then VH20
From the text: The ability of VH20 to compete with KTN0239 was also studied. KTN0239 is a humanized variant of KTN0125 (Sano et al. (2016) Cancer Res., 76(14 Suppl):Abstract2690) and can bind the G rich domain of ALK. A Protein A biosensor (18-5010, BLItz® system, ForteBio; Freemont, CA) was used to immobilization KTN0239-IgG. DPBS (pH=7.4) was used for the baseline and determine dissociation. The detection conditions used were (I) baseline 30 seconds; (II) loading KTN0239-IgG for 120 seconds; (III) baseline 30 seconds; (IV) association for 120 seconds with ALK; and (V) association for 120 seconds with VH20.

[7] = biological target: T2, cell surface ALK on IMR32 cells (Homo sapiens, UniProt Q9UM73); test: FACS binding to IMR32 cells; details: 1 μM, positive cell line
T2 construct: endogenous in cells; host or cells: IMR32
T2 sequence (Q9UM73 19-1620): as above
Description: (§3) The ability of VH20 bind ALK expressing cells was also studied by FACS. SK-N-AS (negative cell line), IMR32 (positive cell line), SY5Y-D3 (positive cell line) cells were stained with VH20 at a concentration of 1 μM in 200 μL PBS for 30 minutes on ice. The cells were washed with 1 mL PBS three times and incubated with anti-Flag-PE antibody (1:200, BioLegend) for 30 minutes on ice. The cells were again washed with 1 mL PBS three times. Antibody binding was detected on a BD™ LSR II (San Jose, CA). FACS data analysis was performed using FlowJo_V10_CL.

[8] = test system: cell surface ALK on SY5Y-D3 cells; test: FACS binding to SY5Y-D3 cells; details: 1 μM, positive cell line
Sequence of cell surface ALK on SY5Y-D3 cells (Q9UM73 19-1038 limits assumed): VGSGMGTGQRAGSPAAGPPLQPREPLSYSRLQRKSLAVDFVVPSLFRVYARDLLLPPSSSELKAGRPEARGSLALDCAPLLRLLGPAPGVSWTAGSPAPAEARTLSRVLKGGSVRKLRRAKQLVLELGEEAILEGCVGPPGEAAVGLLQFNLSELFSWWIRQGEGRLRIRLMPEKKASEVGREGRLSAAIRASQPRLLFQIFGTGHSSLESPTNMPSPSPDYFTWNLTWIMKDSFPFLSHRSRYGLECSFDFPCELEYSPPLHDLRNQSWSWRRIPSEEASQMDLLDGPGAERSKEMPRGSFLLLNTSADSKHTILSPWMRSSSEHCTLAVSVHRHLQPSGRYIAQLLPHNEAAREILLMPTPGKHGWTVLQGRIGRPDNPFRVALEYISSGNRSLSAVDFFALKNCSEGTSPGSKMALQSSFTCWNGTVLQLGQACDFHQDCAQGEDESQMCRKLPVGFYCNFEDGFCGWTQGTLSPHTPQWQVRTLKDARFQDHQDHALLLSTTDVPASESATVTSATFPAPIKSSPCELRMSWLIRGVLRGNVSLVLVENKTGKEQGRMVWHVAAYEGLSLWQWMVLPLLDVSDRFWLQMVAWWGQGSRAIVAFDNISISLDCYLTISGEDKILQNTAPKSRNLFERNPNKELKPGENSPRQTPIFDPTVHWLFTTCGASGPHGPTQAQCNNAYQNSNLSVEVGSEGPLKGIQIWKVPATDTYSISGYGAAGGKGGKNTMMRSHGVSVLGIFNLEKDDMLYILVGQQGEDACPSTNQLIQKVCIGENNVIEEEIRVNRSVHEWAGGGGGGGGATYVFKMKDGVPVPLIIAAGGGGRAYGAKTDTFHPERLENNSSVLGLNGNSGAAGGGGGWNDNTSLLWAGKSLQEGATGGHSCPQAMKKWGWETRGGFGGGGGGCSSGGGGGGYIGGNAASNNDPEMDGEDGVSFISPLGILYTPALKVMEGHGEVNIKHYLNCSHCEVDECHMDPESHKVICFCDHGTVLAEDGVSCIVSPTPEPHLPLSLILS
Description: as §3

[9] = test system: SK-N-AS cells; test: FACS binding to SK-N-AS cells (negative cell line); details: 1 μM
Description: as §3

[10] = test system: 293T-ALK cells; test: Internalization of pHrodo Deep Red labelled VH20, 293T-ALK; assay type: cell-based; details: pHrodo Deep Red conjugated VH20, 24 hours, flow cytometer
Description: (§4) VH20 internalization was also characterized. For the internalization studies, VH20 was conjugated with pHrodo™ Deep Red dye using the pHrodo™ Deep Red Antibody Labeling Kit (Thermo). The conjugated VH20 was incubated with 293T and 293T-ALK cells for 24 hours at different concentrations. VH20 internalization was measured by a flow cytometer.

[11] = test system: 293T cells; test: Internalization of pHrodo Deep Red labelled VH20, 293T; assay type: cell-based; details: pHrodo Deep Red conjugated VH20, 24 hours, flow cytometer
Description: as §4

[12] = biological target: T3, ALK-Fc, a fusion of the ALK extracellular domain and human IgG1 Fc (human, UniProt Q9UM73 19-1038); test: ELISA, ALK-Fc coated, anti-Flag-HRP detection
T3 construct: not shown: human IgG1 Fc
T3 sequence (Q9UM73 19-1038): as the sequence (Q9UM73 19-1038 limits assumed) above
Description: The VHs were further characterized. First, the binding affinities of the VHs were studied in an ELISA assay using a fusion protein comprising the ALK extracellular domain fused to the human IgG1 Fc (ALK-Fc). ELISA plates (Corning 3690; Tewksbury, MA) were coated with 50 μl antigen (5 μg/ml diluted with 1×PBS) at 4° C. overnight. The next day, blocking was performed with 150 μL 5% milk-PBS (Bio-RAD; Hercules, CA) at room temperature for two hours. Then, the plates were washed with 0.05% PBST three times. 3-fold serial diluted VH antibodies (in 5% PBS-Milk) was added into each well and incubated at room temperature for 1 hour and then washed with PBST 4 times. Next, 50 μL anti-Flag-HRP (1:1000 dilution in 5% PBS-Milk, Thermo; Waltham, MA) was added into each well and incubated at room temperature for 1 hour and then washed 5 times with PBST. 50 μL 3,3′,5,5′-tetramethylbenzidine (TMB) substrate (Sigma; St. Louis, MO) was added into each well and color was allowed to develop for 1-2 minutes before stopping with 50 μL H₂SO₄ (1M, Sigma). Plates were read at 450 nm absorbance. The ELISA results were analyzed using GraphPad Prism 9.0.2.

[13] = biological target: T1, ALK extracellular domain expressed on the cell surface of 293T cells (293T-ALK); test: Flow cytometry binding of VHs to 293T-ALK cells; set-up: expressed in transfected cells; host or cells: 293T; details: VH at 1 μM, anti-FLAG-PE detection
T1 sequence (Q9UM73 733-960 limits assumed): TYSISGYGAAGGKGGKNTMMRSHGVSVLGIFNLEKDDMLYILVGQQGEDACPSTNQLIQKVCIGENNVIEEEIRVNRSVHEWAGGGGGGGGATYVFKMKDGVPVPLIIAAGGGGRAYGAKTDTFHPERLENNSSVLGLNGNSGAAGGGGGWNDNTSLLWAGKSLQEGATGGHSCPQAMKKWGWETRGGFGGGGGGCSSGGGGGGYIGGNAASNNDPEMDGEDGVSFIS
Description: as §1, §2

[14] = test system: 293T-ALK cells; test: Anti-ALK CAR-T cell cytotoxicity (LDH release); assay type: cell-based; details: CAR-T cells comprising the VH, effector:target 1.25:1 to 20:1, 48 hours
Description: The cytotoxicity of anti-ALK CAR-T cells against 293T and 293T-ALK cells was also studied. Anti-ALK CAR-T cells (effector cells) were incubated with 293T and 293T-ALK cells at the effector: target ratios of 1.25:1, 2.5:1, 5:1, 10:1 and 20:1 for 48 hours in a 96-well cell culture plate (Corning). The co-cultures of CAR-T cells with 293T cells were used as negative controls. Cytotoxicity was determined by detecting specific lactate dehydrogenase (LDH) released into the medium from the target cells with cytotoxicity LDH detection kit (Promega) according to the manufacturer's instructions. Percent cytotoxicity was calculated with the following formula: Cytotoxicity (%)=(Experimental lysis−Effector spontaneous lysis−Target spontaneous lysis)/(Target maximum lysis−Target spontaneous lysis)×100%. Anti-ALK CAR-T cells were co-cultured with 293T cells as negative controls.

T1 sequence (Q9UM73 19-1038): as the sequence (Q9UM73 19-1038 limits assumed) above

B1: VH20-OKT3-Fc BiTE (bispecific antibody, part only; not given: anti-CD3 scFv, linkers and Fc, not shown: a dimerising Fc or GST)
chain (part 1 of 2), part: EVQLVESGGGVVQPGRSLRLSCAASGFTFSSYAMHWVRQAPGKGLEWVAAIWYDGSNQYYADSVKGRFTISRDDSTNTLYLQMNSLRAEDTALYYCAKSSYYDSSGYYFPYGYWGQGTLVTVSS
chain (part 2 of 2), part: HHHHHH
[1]
  cytotoxicity IC50 (LDH release, activated Pan-T cells, E:T=4:1, 24 hours): 10 pM
[2]
  cytotoxicity IC50 on IMR32 cells (LDH release, activated Pan-T cells, E:T=4:1, 24 hours): 100 pM
  cytotoxicity IC50 on SY5Y cells (LDH release, activated Pan-T cells, E:T=4:1, 24 hours): 150 pM

B2: VH20 (other)
VH: EVQLVESGGGVVQPGRSLRLSCAASGFTFSSYAMHWVRQAPGKGLEWVAAIWYDGSNQYYADSVKGRFTISRDDSTNTLYLQMNSLRAEDTALYYCAKSSYYDSSGYYFPYGYWGQGTLVTVSS
notes: Single-domain antibody (isolated VH domain) found by phage panning on the ALK G-rich domain antigen; For the internalization assay it was labelled with pHrodo Deep Red dye
[3]
  non-specific binding with 293T cells: no significant non-specific binding
[4]
  aggregation by DLS: lower aggregation
[5]
  oligomeric state by SEC: dimer
[6]
  competition with KTN0239-IgG: not in competition
[7]
  binding cell surface ALK on IMR32 cells: capable of binding
[8]
  binding cell surface ALK on SY5Y-D3 cells: capable of binding
[9]
  binding to SK-N-AS cells: not
[10]
  internalization into 293T-ALK cells: effectively internalized
[11]
  non-specific internalization in 293T cells: no non-specific internalization was detected
[12]
  EC50: ~400 pM
[13]
  binding with 293T-ALK cells: good binding

B3: VH78 (other)
VH: EVQLVESGGGVVQPGRSLRLSCAASGFTFSSYAMHWVRQAPGKGLEWMGIIYPGDSDTRYSPSFQGHVTISRDDSTNTLYLQMNSLRAEDTATYYCARERGWQDAFDIWGQGTLVTVSS
notes: Single-domain antibody (isolated VH domain) found with the ALK G-T domain antigen
[3]
  non-specific binding with 293T cells: no significant non-specific binding
[14]
  cytotoxicity of anti-ALK CAR-T cells: greater cytotoxicity
[12]
  EC50: ~1320 pM
[13]
  binding with 293T-ALK cells: good binding
